This note sets out measurements from patent publication US7105638B1.

This assay deals with Example III polypeptide 2 (modified truncated TRP-LE - Asp-Leu hinge - Glu - salmon calcitonin Asp 15 analog) (salmon) (UniProt P01263).

As for “S. aureus V-8 protease (from UniProt P0C1U8) (enzyme)”, the completeness of cleavage at the Glu residue amino terminal to calcitonin was > 95%.
